According to publication PMC8444148 (Molecular psychiatry, 2019):

T1: ATF4 278-349 (basic region + leucine zipper) (UniProt Q06507 278-349)
T1 sequence: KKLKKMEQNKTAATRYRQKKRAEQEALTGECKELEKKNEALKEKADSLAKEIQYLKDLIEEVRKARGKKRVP

B1: CRE dsDNA (dsDNA)
DNA 1: GCAGATGACGTCATCTGC
DNA 2: GCAGATGACGTCATCTGC
B2: DISC1-CC (coiled coil, residues 765-835) (domain or fragment, UniProt Q811T9-1 765-835, looked up)
chain: GPWKEDSHIVSAEVGEKCEAIGVKLLHLEDQLLGAMYSHDEALFQSLQGELQTVKETLQAMILQLQPTKEA
B3: DISC1 322-852 (predicted helical region of DISC1) (domain or fragment, UniProt Q811T9-1 322-852, looked up)
chain: ADAHGWHTLLREWEPMLQDYLLSNRRQLEVTSLILKLQKCQEKVVEDGDYDTAETLRQRLEELEQEKGRLSWALPSQQPALRSFLGYLAAQIQVALHGATQRAGSDDPEAPLEGQLRTTAQDSLPASITRRDWLIREKQRLQKEIEALQARMSALEAKEKRLSQELEEQEVLLRWPGCDLMALVAQMSPGQLQEVSKALGETLTSANQAPFQVEPPETLRSLRERTKSLNLAVRELTAQVCSGEKLCSSLRRRLSDLDTRLPALLEAKMLALSGSCFSTAKELTEEIWALSSEREGLEMFLGRLLALSSRNSRRLGIVKEDHLRCRQDLALQDAAHKTRMKANTVKCMEVLEGQLSSCRCPLLGRVWKADLETCQLLMQSLQLQEAGSSPHAEDEEQVHSTGEAAQTAALAVPRTPHPEEEKSPLQVLQEWDTHSALSPHCAAGPWKEDSHIVSAEVGEKCEAIGVKLLHLEDQLLGAMYSHDEALFQSLQGELQTVKETLQAMILQLQPTKEAGEASASYPTAGAQETEA
B4: ATF4 leucine zipper domain (residues 314-349) (domain or fragment, UniProt Q06507 314-349, looked up)
chain: KNEALKEKADSLAKEIQYLKDLIEEVRKARGKKRVP

Experiments:
[1] = target: T1, ATF4 278-349 (basic region + leucine …); experiment: ITC
[2] = target: C/EBPα (UniProt P53566 1-359); experiment: ITC
[3] = target: C/EBPζ (CHOP) (UniProt P35639 1-168); experiment: ITC
[4] = target: B4; experiment: ITC
[5] = target: B3; experiment: ITC
[6] = target: the molecule itself; experiment: SEC-MALS

Sequence of C/EBPα (P53566 whole entry): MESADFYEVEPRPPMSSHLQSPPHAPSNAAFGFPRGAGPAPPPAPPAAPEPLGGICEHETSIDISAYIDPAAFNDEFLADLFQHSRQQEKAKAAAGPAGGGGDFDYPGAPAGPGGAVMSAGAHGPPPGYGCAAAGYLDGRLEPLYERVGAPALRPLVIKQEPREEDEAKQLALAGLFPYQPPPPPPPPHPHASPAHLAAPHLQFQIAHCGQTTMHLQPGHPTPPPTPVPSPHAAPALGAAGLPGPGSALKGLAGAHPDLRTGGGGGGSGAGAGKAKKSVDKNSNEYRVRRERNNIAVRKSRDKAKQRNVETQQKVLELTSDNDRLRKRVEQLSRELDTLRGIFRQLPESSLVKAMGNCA
Sequence of C/EBPζ (CHOP) (P35639 whole entry): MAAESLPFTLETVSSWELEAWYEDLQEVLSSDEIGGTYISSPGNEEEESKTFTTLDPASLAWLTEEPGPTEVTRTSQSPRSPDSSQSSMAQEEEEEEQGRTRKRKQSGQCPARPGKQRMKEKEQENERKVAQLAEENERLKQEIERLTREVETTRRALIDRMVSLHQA

Binder: B1
- Kd [1]: ~12 nM

Binder: B2
- Kd [2]: ~11000 nM
- fold weaker than the DISC1/ATF4 interaction [3]: ~2000 fold

Binder: B3
- stoichiometry N [4]: 1

Binder: B4
- Kd [5]: ~14 nM

Binder: KNEALKEKADSLAKEIQYLKDLIEEVRKARGKKRVP (domain or fragment, UniProt Q06507 314-349, looked up) [trx tagged-ATF4-LZ]
- stoichiometry N [6]: 2
